Data set [1] concerns the target AtFN3K C32A/C236A/C196A triple cysteine mutant (Arabidopsis thaliana). In words: AUC.
For data set [2] the target is unchanged. As to the kind of experiment: SEC. Background: In gel filtration, larger molecules generally elute earlier.
The target in data set [3] is Arabidopsis thaliana Fructosamine-3-kinase homolog (AtFN3K), wild type (Arabidopsis thaliana) (UniProt Q9LEW8). As to the kind of experiment: SEC.
Data set [4] concerns the molecule itself. In words: non-reducing SDS-PAGE.

With “AtFN3K C32A/C236A/C196A triple cysteine mutant (enzyme)”, the stoichiometry N in data set [1] and in data set [2] was 2 throughout.
Consider “Arabidopsis thaliana Fructosamine-3-kinase homolog (AtFN3K), wild type (from UniProt Q9LEW8 31-326) (enzyme)”, for which the stoichiometry N (in general, a count of units in the complex or per binding partner) in data set [3] came to 2.

B1: Recombinant His-HsFN3K (human Fructosamine-3-kinase), wild type (enzyme, UniProt Q9H479 1-309, looked up)
chain: MEQLLRAELRTATLRAFGGPGAGCISEGRAYDTDAGPVFVKVNRRTQARQMFEGEVASLEALRSTGLVRVPRPMKVIDLPGGGAAFVMEHLKMKSLSSQASKLGEQMADLHLYNQKLREKLKEEENTVGRRGEGAEPQYVDKFGFHTVTCCGFIPQVNEWQDDWPTFFARHRLQAQLDLIEKDYADREARELWSRLQVKIPDLFCGLEIVPALLHGDLWSGNVAEDDVGPIIYDPASFYGHSEFELAIALMFGGFPRSFFTAYHRKIPKAPGFDQRLLLYQLFNYLNHWNHFGREYRSPSLGTMRRLLK
Regarding B1, in data set [4], the binding result is listed as “binds”.
